What was measured:
[1] = target: alpha-enolase (UniProt P06733 P06733:2-434); test: EMSA; strong binding; supershifted by alpha-enolase polyclonal antibody; settings: parallel G4
Text: (§1) EMSAs were used to characterize the binding of α-enolase and MBP-1 to the c-myc quadruplex-forming sequence. […] The quadruplex oligonucleotide aptamer, GRO29A, competed for α-enolase and MBP-1 binding to PU27. […] A mutation in the PU27 sequence, which prevents quadruplex formation, abrogated binding of both α-enolase and MBP-1. MBP-1 also binds to a downstream site in the P2 promoter.

[2] = target: MBP-1 (alternative translation product of alpha-enolase) (UniProt P06733-2 P06733-2:1-341); test: as above; settings: parallel G4
Sequence of MBP-1 (alternative translation product of alpha-enolase) (P06733 94-434, one chain of several): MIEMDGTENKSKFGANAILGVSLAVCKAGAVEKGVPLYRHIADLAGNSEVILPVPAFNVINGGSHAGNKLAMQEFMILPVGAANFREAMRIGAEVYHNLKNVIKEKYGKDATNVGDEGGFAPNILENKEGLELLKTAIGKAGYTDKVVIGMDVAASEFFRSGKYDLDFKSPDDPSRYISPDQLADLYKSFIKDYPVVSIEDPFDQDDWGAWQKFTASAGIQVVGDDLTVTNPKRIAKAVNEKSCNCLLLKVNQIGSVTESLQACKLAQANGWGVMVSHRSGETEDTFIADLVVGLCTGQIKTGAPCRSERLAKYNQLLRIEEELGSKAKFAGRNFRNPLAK
Text: as §1

Sequence of alpha-enolase (P06733 2-434, one chain of several): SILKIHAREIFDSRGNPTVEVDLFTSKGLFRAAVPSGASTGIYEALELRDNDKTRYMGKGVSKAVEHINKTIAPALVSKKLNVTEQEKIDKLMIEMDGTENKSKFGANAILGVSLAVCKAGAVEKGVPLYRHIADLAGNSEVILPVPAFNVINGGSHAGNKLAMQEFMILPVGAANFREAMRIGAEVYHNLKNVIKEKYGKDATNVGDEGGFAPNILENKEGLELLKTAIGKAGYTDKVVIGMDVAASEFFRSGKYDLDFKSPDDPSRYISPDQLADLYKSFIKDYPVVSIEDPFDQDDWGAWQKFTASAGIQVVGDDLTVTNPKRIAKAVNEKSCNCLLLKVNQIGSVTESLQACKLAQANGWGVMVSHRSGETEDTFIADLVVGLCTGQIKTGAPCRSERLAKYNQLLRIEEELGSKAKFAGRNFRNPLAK

B1: PU27 (c-Myc promoter quadruplex) (structured_DNA)
DNA: TGGGGAGGGTGGGGAGGGTGGGGAAGG
binding result [1]: binds | binding result [2]: binds

Source: patent US20110213019, “Compositions and Methods for Treating Cancer, Inhibiting Proliferation, and Inducing Cell Death” (UNIVERSITY OF LOUISVILLE RESEARCH FOUNDATION, INC., published 2011)
